The values below come from paper doi:10.1101/2025.02.13.638205 (2025).

To fix the notation:
B1: recombinant Pfs230 D13D14 (K2828-E3111) (domain or fragment)
chain: KTIGKDICKYDVTTKVATCEIIDTIDSSVLKEHHTVHYSITLSRWDKLIIKYPTNEKTHFENFFVNPFNLKDKVLYNYNKPINIEHILPGAITTDIYDTRTKIKQYILRIPPYVHKDIHFSLEFNNSLSLTKQNQNIIYGNVAKIFIHINQGYKEIHGCDFTGKYSHLFTYSKKPLPNDDDICNVTIGNNTFSGFACLSHFELKPNNCFSSVYDYNEANKVKKLFDLSTKVELDHIKQNTSGYTLSYIIFNKESTKLKFSCTCSSNYSNYTIRITFDPNYIIPE
B2: nanobody W2812 (VHH)
VHH: QVQLQESGGGLVQPGGSLRLSCAASGRTFSSYMMAWFRQSQGNERELVAGLTRSGVSAYYADSVKGRFTISRDNAKNTVYLQMNSLKPKDTAVYYCAAASTTYINHIYTNPSNYPHWGPGTQVTVSS
B3: nanobody W2810 (VHH)
VHH: QVQLQESGGGLVQAGGSLRLSCAASGRTFSSYAMGWFHQAPGKEREFVASISWSGGSIRYADSVKGRFTVSRDNAKNTAYLQMNSLKPEDTGVYYCAAGPYSSDYGGFGSWGQGTQVTVSS

One test deals with W2811. Briefly: BLI. Background: BLI is a label-free optical method that tracks binding on a fibre tip over time.
Test [1] concerns the target B1. Briefly: BLI.

A word on the Kd: it is the concentration at which binding is half-saturated. The molecule B1 displayed a Kd with W2811 of 5.12 nM.

In the case of B2, the equilibrium dissociation constant (Kd) in test [1] worked out at 1.55 nM.

As for B3, the Kd in test [1] was 4.8 nM.
